Results on six molecules are retold here after article PMC6625990, “Structural underpinnings of Ric8A function as a G-protein α-subunit chaperone and guanine-nucleotide exchange factor” (Nature Communications, 2019).

Where “and” joins values, the source holds several entries; their conditions need not be identical. Equal values may be shown once. No end group written: not given here. *: point of attachment. Biotin = O=C1N[C@H]2[C@H](CS[C@H]2CCCCC(=O)*)N1

B1: bovine Ric8A1–492 (domain or fragment, UniProt Q5E9J8 1-492, looked up)
chain: MEPRAVADALETGEEDVVMEALRAYNRENSQSFTFDDAQQEDRKRLAKLLVSVLEQGLPPSRRVIWLQSIRILSRDRSCLDSFTSRRSLQALACYAGISASQGSVPEPLNMDVVLESLKCLCNLVLSSPVAQALAAEAGLVVRLAERVGLCRQSSFPHDVQFFDLRLLFLLTALRTDVRQQLFQELQGVRLLTRALELTLGMTEGERHPELLPPQETERAMEILKVLFNITFDSIKREVDEEDAALYRHLGTLLRHCVMLAAAGDRTEELHGHAVNLLGNLPVKCLDVLLTLEPHEGSLEFLGVNMDVIRVLLSFMEKRLHQTHRLKESVAPVLSVLTECARMHRPARKFLKAQVLPPLRDVRTRPEVGELLRNKLVRLMTHLDTDVKRVAAEFLFVLCSESVPRFIKYTGYGNAAGLLAARGLMAGGRPEGQYSEDEDTDTDEYKEAKASINPVTGRVEEKPPNPMEGMTEEQKEHEAMKLVNMFDKLSRH
B4: Gαt333–350 (peptide, UniProt P04695 333-350, looked up)
peptide: Biotin-DAVTDIIIKENLKDCGLF
notes: also called 18-mer C-terminal peptide of Gαt; biotinylated Gαt333–350

What all share (conditions): both partners purified
The series “Gαt333–350” has as its target B4. As to the kind of experiment: differential scanning fluorimetry; Ric8A constructs at 0.5 mg/ml with or without 50 µM peptide, Sypro Orange, 20 mM Tris-HCl pH 7.5, 150 mM KCl, 5% glycerol, 1 mM TCEP. In general terms: In DSF a fluorescence change marks the thermal transition of the protein.
Another series deals with T1, Gαs363–380 (UniProt P63092-2 363-380).
T1 construct: Gαs, C-terminal 18 residues 363-380; the numbers fit the 380-residue short form; also called peptide comprised of the C-terminal 18 residues of Gαs; Gαs C-terminal peptide
T1 peptide (looked up): Biotin-NDCRDIIQRMHLRQYELL
Briefly: BLI; N-terminally biotinylated Gα peptides on streptavidin biosensors, Ric8A proteins in solution; Octet RED96, 26 °C, 20 mM Tris, 150 mM KCl, 5% glycerol, 1 mM TCEP, 0.5 mg/ml BSA, pH 8.0; kinetic fit (1:1 model) and steady-state fit (one site). Background: BLI is a label-free optical method that tracks binding on a fibre tip over time.

The target of a further series is T2, GB1-Gαt340–350 (UniProt P04695 340-350).
T2 construct: transducin-α (Gαt, Gαt1), the 11 C-terminal residues 340-350; Cloned into a modified pQE30 vector containing the GB1 tag; also called 11 C-terminal residues of Gαt fused to the B1 domain of Streptococcal protein G; source: E. coli BL21(DE3); purification not described
T2 chain (looked up): IKENLKDCGLF
Briefly: SEC; Ric8A1–492 mixed with GB1-Gαt340–350 or MBP-Gαt327–350; elution profiles. In general terms: In gel filtration, larger molecules generally elute earlier.

Another series concerns the target T3, MBP-Gαt327–350 (UniProt P04695 327-350).
T3 construct: In pET15b; also called 24 C-terminal residues of Gαt fused to MBP; tagged C-terminal fragment of Gα; source: E. coli BL21(DE3), purified (Ni-NTA, SEC); not shown: MBP (E. coli MBP28–394 with D110A/K111A/E200A/N201A/A243H/K247H/K267A, joined by an AAAH linker), N-terminal, kept
T3 chain (looked up): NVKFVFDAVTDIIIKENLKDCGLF
The description is as above.

In series [1] the target is B1. Briefly: BLI; N-terminally biotinylated Gα peptides on streptavidin biosensors, Ric8A proteins in solution; Octet RED96, 26 °C, 20 mM Tris, 150 mM KCl, 5% glycerol, 1 mM TCEP, 0.5 mg/ml BSA, pH 8.0; kinetic fit (1:1 model) and steady-state fit (one site).
Series [2] deals with B1. As to the kind of experiment: BLI; full-length Avi-tagged Gαt on streptavidin biosensors, Ric8A1–492 proteins in solution; 26 °C, 20 mM Tris, 150 mM KCl, 5% glycerol, 1 mM TCEP, 0.5 mg/ml BSA, pH 8.0; steady-state fit.

With B1, the “shift of Tm” value with Gαt333–350 is roughly 9 °C. In the series with Gαs363–380, the “fold lower affinity than to Gαt333–350” value is roughly 18 fold. The “stoichiometry N” value in the series with GB1-Gαt340–350 and in the series with MBP-Gαt327–350 was roughly 1 throughout.

B2: peptide C2 (peptide)
peptide: Biotin-NDCRDIIIRMNLRQCGLF
modifications: cysteine pairing not given here
notes: Gαs C-terminal 18-mer without its last four residues, with Q370I and H373N; the numbers fit the 380-residue short form; the four C-terminal residues of Gαt; Peptide C1 with two additional substitutions
As to B2, the binding result in the series with bovine Ric8A1–492 [1] is “binds”.

B3: full-length Avi-tagged Gαt (natural protein)
chain: MGAGASAEEKHSRELEKKLKEDAEKDARTVKLLLLGAGESGKSTIVKQMKIIHQDGYSLEECLEFIAIIYGNTLQSILAIVRAMTTLNIQYGDSARQDDARKLMHMADTIEEGTMPKEMSDIIQRLWKDSGIQACFDRASEYQLNDSAGYYLSDLERLVTPGYVPTEQDVLRSRVKTTGIIETQFSFKDLNFRMFDVGGQRSERKKWIHCFEGVTAIIFCVALSDYDLVLAEDEEMNRMHESMKLFDSICNNKWFTDTSIILFLNKKDLFEEKIKKSPLTICYPEYAGSNTYEEAGNYIKVQFLELNMRRDVKEIYSHMTCATDTQNVKFVFDAVTDIIIKENLKDCGLF
modifications: biotin on the Avi tag (cells grown in media supplemented with biotin)
B3: the Kd in the series with bovine Ric8A1–492 [2] is 24 nM.

As to B4, in the series with bovine Ric8A1–492 [1], the Kd was 240 nM and 280 nM and 270 nM; the koff was found to be 0.031 s⁻¹; the kon amounted to 130000 M⁻¹ s⁻¹.

B5: peptide C1 (peptide)
peptide: Biotin-NDCRDIIQRMHLRQCGLF
modifications: cysteine pairing not given here
notes: Gαs C-terminal 18-mer without its last four residues; the numbers fit the 380-residue short form; the four C-terminal residues of Gαt; also called chimeric C-terminal peptide of Gαs ending in CGLF
With B5, in the series with bovine Ric8A1–492 [1], the binding result was “binds”.

B6: Avi-tagged I340Q/N343H mutant of Gαt (natural protein)
chain: MGAGASAEEKHSRELEKKLKEDAEKDARTVKLLLLGAGESGKSTIVKQMKIIHQDGYSLEECLEFIAIIYGNTLQSILAIVRAMTTLNIQYGDSARQDDARKLMHMADTIEEGTMPKEMSDIIQRLWKDSGIQACFDRASEYQLNDSAGYYLSDLERLVTPGYVPTEQDVLRSRVKTTGIIETQFSFKDLNFRMFDVGGQRSERKKWIHCFEGVTAIIFCVALSDYDLVLAEDEEMNRMHESMKLFDSICNNKWFTDTSIILFLNKKDLFEEKIKKSPLTICYPEYAGSNTYEEAGNYIKVQFLELNMRRDVKEIYSHMTCATDTQNVKFVFDAVTDIIQKEHLKDCGLF
modifications: biotin on the Avi tag (cells grown in media supplemented with biotin)
As to B6, in the series with bovine Ric8A1–492 [2], the Kd was 2300 nM.

The term stoichiometry N denotes the number of molecules, sites or subunits per partner or assembly. A word on the Kd: it is the constant that tells how readily two partners part at equilibrium. High values mean weaker binding, low ones tighter binding. The koff is a measure of how fast the partners let go of each other. Higher therefore signals a short-lived complex. One may read the kon as a measure of how fast the partners come together. A higher kon goes with faster complex formation.
